Legend:
Experiment in all cases: cell-based or functional assay
Abl(h) (human) = Abl(h) (human) (UniProt P00519)
EGFR(L861Q)(h) (human) = EGFR(L861Q)(h) (human) (UniProt P00533)
EGFR(h) (human) = EGFR(h) (human) (UniProt P00533)
EphA7(h) (human) = EphA7(h) (human) (UniProt Q15375)
EphB1(h) (human) = EphB1(h) (human) (UniProt P54762)
Flt3(h) (human) = molecular target: T1, Flt3(h) (human) (UniProt P36888)
T1 sequence (looked up): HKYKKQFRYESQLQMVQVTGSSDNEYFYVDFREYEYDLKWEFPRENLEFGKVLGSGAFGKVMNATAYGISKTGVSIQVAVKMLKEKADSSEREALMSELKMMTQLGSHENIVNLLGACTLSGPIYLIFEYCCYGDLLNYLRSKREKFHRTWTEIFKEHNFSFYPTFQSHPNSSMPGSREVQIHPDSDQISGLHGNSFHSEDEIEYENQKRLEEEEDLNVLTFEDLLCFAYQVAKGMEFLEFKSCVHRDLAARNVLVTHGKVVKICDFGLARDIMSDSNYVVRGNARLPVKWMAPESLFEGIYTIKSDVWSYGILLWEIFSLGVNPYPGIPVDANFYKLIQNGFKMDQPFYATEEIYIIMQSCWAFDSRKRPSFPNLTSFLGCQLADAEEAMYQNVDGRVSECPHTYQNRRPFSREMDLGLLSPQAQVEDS

Flt4(h) (human) = Flt4(h) (human) (UniProt P35916)
IRAK1(h) (human) = IRAK1(h) (human) (UniProt P51617)
Itk(h) (human) = molecular target: T2, Itk(h) (human) (UniProt Q08881)
T2 sequence (looked up): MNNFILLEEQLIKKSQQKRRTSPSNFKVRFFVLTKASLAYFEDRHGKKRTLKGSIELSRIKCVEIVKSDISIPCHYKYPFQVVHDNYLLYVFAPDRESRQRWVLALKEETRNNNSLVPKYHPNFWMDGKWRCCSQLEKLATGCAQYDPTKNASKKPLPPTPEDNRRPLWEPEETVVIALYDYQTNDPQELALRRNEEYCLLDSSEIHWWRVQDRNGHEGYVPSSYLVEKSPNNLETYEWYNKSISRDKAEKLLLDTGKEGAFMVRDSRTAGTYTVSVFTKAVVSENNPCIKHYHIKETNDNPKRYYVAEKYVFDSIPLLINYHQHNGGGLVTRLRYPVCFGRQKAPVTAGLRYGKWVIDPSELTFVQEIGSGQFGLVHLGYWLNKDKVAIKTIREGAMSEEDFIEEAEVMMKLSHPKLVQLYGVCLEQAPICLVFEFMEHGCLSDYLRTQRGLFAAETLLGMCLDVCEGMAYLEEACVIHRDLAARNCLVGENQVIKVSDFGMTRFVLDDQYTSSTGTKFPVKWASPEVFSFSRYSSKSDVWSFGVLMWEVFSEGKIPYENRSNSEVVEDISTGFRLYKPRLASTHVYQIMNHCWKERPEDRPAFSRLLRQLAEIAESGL

JNK2α2(h) (human) = JNK2α2(h) (human) (UniProt P45984)
MELK(h) (human) = MELK(h) (human) (UniProt Q14680)
MLCK(h) (human) = molecular target: MLCK(h) (human)
Mnk2(h) (human) = Mnk2(h) (human) (UniProt Q9HBH9)
PKBα(h) (human) = PKBα(h) (human) (UniProt P31749)
Pim-2(h) (human) = Pim-2(h) (human) (UniProt Q9P1W9)
SAPK2a(h) (human) = SAPK2a(h) (human) (UniProt Q16539)
SIK(h) (human) = SIK(h) (human) (UniProt P57059)
ULK2(h) (human) = molecular target: T3, ULK2(h) (human) (UniProt Q8IYT8)
T3 sequence (looked up): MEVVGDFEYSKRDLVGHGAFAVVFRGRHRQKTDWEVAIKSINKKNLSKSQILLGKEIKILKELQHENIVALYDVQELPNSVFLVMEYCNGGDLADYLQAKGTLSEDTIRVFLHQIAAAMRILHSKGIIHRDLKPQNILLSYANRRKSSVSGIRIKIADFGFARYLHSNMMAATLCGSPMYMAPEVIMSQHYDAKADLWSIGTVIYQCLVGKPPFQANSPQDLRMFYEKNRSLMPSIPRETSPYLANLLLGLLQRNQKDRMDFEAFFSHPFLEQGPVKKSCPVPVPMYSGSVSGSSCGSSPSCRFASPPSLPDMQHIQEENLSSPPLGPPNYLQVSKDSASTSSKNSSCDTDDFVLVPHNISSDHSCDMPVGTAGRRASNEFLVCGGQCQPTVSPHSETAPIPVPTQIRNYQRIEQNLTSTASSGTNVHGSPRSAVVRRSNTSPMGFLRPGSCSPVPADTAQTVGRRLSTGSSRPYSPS

WNK2(h) (human) = WNK2(h) (human) (UniProt Q9Y3S1)
cKit(D816H)(h) (human) = cKit(D816H)(h) (human) (UniProt P10721)
cKit(h) (human) = cKit(h) (human) (UniProt P10721)
Sequence of cKit(h) (human) (P10721 544-976): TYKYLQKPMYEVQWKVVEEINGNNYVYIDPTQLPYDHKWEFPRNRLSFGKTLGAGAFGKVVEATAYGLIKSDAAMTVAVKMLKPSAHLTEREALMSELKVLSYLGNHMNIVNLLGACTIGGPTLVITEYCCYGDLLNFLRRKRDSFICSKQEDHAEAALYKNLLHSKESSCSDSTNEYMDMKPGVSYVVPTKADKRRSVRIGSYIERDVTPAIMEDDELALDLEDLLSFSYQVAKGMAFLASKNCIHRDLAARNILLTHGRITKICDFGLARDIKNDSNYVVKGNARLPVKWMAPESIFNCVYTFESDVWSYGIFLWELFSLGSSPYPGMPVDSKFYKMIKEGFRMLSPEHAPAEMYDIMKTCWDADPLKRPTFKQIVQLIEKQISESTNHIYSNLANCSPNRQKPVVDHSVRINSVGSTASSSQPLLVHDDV

Sequence of Flt4(h) (human) (P35916 800-1363 limits assumed): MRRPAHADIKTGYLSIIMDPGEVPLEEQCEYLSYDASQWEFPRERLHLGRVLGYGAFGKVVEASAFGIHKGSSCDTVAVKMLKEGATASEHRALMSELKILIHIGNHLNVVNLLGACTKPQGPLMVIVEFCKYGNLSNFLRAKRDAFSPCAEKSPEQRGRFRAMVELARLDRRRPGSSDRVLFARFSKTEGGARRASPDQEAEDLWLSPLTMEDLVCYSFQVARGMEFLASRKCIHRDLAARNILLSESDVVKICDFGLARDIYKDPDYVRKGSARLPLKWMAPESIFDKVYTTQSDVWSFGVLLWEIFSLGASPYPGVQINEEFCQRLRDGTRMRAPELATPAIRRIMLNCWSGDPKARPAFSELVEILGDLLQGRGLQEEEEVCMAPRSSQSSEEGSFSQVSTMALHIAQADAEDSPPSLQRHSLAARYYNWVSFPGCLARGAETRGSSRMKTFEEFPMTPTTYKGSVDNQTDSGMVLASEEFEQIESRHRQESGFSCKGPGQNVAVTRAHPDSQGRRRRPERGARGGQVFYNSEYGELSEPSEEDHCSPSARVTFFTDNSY
Sequence of PKBα(h) (human) (P31749 whole entry): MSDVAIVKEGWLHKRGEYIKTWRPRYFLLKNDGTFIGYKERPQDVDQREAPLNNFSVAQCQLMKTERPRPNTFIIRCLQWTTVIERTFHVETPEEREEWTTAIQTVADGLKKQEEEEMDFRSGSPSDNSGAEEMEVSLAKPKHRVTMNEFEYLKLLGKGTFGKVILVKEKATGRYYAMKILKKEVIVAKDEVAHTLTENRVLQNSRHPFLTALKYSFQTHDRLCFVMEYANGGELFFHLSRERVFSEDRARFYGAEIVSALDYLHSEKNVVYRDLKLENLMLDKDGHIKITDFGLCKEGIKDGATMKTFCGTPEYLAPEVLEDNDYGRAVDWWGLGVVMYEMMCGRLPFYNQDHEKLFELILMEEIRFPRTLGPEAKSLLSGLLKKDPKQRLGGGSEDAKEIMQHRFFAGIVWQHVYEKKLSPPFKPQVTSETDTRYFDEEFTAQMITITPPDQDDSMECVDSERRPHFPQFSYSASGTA
Sequence of SAPK2a(h) (human) (Q16539 whole entry): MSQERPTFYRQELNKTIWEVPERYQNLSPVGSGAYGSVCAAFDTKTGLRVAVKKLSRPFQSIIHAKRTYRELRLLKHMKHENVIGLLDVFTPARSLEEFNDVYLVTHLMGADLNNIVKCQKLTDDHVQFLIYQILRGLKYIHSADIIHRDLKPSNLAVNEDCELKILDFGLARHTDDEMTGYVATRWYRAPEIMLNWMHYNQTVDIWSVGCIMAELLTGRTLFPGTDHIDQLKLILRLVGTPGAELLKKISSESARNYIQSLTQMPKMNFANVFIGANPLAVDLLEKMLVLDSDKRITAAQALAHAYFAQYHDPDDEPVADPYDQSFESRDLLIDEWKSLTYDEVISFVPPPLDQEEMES
Sequence of EphB1(h) (human) (P54762 564-984 limits assumed): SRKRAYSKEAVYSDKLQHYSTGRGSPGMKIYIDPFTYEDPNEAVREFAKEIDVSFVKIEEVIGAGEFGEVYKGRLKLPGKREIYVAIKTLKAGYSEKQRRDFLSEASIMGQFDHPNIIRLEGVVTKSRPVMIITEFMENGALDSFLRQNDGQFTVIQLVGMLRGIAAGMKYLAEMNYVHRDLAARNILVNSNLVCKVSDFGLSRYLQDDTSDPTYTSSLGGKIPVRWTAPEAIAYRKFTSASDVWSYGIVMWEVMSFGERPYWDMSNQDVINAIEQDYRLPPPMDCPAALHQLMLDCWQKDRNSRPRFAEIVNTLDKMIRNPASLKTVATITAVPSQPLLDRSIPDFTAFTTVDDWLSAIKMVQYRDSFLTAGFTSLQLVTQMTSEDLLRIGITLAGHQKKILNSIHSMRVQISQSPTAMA
Sequence of Abl(h) (human) (P00519 27-1130 limits assumed): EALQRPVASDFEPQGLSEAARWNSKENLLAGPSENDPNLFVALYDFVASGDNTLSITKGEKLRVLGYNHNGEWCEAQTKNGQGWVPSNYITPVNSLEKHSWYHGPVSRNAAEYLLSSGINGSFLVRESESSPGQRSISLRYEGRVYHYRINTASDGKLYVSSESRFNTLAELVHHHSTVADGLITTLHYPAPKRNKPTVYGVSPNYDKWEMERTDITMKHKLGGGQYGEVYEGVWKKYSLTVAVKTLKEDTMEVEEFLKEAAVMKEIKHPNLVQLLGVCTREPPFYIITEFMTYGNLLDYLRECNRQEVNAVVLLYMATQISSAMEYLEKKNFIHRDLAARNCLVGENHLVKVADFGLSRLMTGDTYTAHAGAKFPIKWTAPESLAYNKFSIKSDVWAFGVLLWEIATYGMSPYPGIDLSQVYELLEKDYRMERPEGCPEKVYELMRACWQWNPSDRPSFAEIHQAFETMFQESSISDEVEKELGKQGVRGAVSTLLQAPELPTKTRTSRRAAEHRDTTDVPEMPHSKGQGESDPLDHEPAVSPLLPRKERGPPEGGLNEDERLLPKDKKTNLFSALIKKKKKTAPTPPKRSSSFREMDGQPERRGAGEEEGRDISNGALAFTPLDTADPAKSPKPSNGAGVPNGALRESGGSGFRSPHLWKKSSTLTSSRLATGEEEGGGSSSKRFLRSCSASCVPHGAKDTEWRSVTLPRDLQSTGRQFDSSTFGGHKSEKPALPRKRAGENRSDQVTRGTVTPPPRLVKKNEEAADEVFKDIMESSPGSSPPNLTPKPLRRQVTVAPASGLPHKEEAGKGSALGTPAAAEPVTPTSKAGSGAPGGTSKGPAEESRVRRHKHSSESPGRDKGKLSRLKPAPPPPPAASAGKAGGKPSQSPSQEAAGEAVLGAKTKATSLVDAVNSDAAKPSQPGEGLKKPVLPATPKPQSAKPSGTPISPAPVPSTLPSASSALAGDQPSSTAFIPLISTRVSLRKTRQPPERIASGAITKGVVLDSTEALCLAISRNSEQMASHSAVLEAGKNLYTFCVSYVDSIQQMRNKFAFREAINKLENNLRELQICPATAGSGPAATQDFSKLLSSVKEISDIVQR
Sequence of cKit(D816H)(h) (human) (P10721 544-976 D816H): as the sequence (P10721 544-976) above, with D273H counted along it

Row | Substance | % activity at 100 µM (Abl(h) (human)) [%] | % activity at 100 µM (EGFR(L861Q)(h) (human)) [%] | % activity at 100 µM (EGFR(h) (human)) [%] | % activity at 100 µM (EphA7(h) (human)) [%] | % activity at 100 µM (EphB1(h) (human)) [%] | % activity at 100 µM (Flt3(h) (human)) [%] | % activity at 100 µM (Flt4(h) (human)) [%] | % activity at 100 µM (IRAK1(h) (human)) [%] | % activity at 100 µM (Itk(h) (human)) [%] | % activity at 100 µM (JNK2α2(h) (human)) [%] | % activity at 100 µM (MELK(h) (human)) [%] | % activity at 100 µM (MLCK(h) (human)) [%] | % activity at 100 µM (Mnk2(h) (human)) [%] | % activity at 100 µM (PKBα(h) (human)) [%] | % activity at 100 µM (Pim-2(h) (human)) [%] | % activity at 100 µM (SAPK2a(h) (human)) [%] | % activity at 100 µM (SIK(h) (human)) [%] | % activity at 100 µM (ULK2(h) (human)) [%] | % activity at 100 µM (WNK2(h) (human)) [%] | % activity at 100 µM (cKit(D816H)(h) (human)) [%] | also measured
1 | MMI-0400 (peptide) | 84 | 22 | 16 | 222 | 58 | 18 | 89 | 93 | 63 | 96 | 17 | 1 | 86 | 67 | 92 | 85 | 68 | 131 | 54 | 143 | % activity at 100 µM (cKit(h) (human)): 43%
2 | MMI-0300 (peptide) | 69 | 25 | 21 | 159 | 44 | 84 | 83 | 95 | 77 | 98 | 16 | 2 | 89 | 57 | 76 | 90 | 66 | 122 | 64 | 126 | % activity at 100 µM (cKit(h) (human)): 53%
3 | MMI-0500 (peptide) | 16 | 15 | -1 | 189 | 37 | 17 | 73 | 5 | 7 | 81 | 0 | 0 | 6 | 30 | 46 | 52 | 40 | 124 | 8 | 194 | % activity at 100 µM (cKit(h) (human)): 45%
